Assay results from patent US20220242950A1 (CANTARGIA, published 2022).
Residue numbers refer to the chain shown, from its start.

T1: recombinant hIL1RAP Domain1+2+3 (aa21-367) (human, UniProt Q9NPH3 21-367)
T1 construct: Numbering on Uniprot Q9NPH3
T1 sequence (looked up): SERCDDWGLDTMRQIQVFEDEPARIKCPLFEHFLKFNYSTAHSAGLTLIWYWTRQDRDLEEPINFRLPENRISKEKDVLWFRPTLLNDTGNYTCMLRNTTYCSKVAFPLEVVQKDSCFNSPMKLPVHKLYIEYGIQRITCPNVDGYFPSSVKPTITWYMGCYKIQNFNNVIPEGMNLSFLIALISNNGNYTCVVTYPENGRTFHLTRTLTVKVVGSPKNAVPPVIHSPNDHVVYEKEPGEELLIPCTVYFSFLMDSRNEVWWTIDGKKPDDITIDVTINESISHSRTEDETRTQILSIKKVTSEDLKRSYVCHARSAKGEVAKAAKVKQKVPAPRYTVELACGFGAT

T2: recombinant mf IL1RAP aa21-367 (cynomolgus monkey (Macaca fascicularis), UniProt A0A2K5X5J5 21-367)
T2 construct: also called cynomolgus monkey IL1RAP; cyno IL1RAP
T2 sequence: T1 sequence (looked up) with L183F, T273P, K326T

T3: human IL1RAP on the cell surface (human, UniProt Q9NPH3 21-570)
T3 sequence (looked up): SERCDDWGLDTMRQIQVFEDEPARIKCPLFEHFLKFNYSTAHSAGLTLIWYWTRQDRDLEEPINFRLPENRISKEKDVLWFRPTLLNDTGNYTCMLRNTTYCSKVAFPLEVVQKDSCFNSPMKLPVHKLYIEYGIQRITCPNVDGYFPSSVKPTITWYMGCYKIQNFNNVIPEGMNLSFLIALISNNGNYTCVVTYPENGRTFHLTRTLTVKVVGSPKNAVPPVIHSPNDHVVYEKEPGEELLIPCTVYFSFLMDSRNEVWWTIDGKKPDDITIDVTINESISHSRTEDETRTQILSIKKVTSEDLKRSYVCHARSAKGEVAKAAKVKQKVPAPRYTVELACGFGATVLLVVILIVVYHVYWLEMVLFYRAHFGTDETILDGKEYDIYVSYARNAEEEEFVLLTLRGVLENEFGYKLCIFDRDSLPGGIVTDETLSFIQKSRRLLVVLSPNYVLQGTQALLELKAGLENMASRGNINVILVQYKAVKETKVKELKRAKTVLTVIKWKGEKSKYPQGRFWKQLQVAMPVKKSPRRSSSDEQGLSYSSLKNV

B1: h48D2 VH5:VL1 (antibody, human IgG1, kappa, L234A L235A, V domains shown)
VH: QEQLEESGGGLVKPGGTLSLTCTVSGPSLSHFDITWIRQAPGSGLEWIGTISPGVSTYYASWAKSRVTISVDTSLNTVSLKLSSVTAADTATYFCARGGVGSSWKAFDLWGPGTLVTISS
VL: DIVMTQSPSSLSASVGDRVTITCQASESISTALAWYQQKPGKAPKLLIYKASTLPSGVPSRFSGSGSGTDFTLTISSLQPEDFATYYCQQGFSSGNVHNAFGGGTKVVIKR
notes: Humanized; also called VL1:VH5
B2: h48D2 VH1:VL1 (antibody, human IgG1, kappa, L234A L235A, V domains shown)
VH: EVQLEESGGGLVKPGGSLRLSCAASGPSLSHFDITWVRQAPGKGLEWVSTISPGVSTYYASWAKSRFTISRDNSKNTLYLQMNSLRAEDTAVYYCARGGVGSSWKAFDLWGRGTLVTVSS
VL: B1 VL
notes: Humanized; also called VL1:VH1
B3: h48D2 VH2:VL1 (antibody, human IgG1, kappa, L234A L235A, V domains shown)
VH: EVQLVESGGALVQPGGSLRLSCIVSGPSLSHFDITWFRQAPGKGLEWVATISPGVSTYYASWAKSRFTISTDTSKNTLFLQMDSLRAEDTAVYYCARGGVGSSWKAFDLWGPGTLVTVSS
VL: B1 VL
notes: Humanized; also called VL1:VH2
B4: h48D2 VH1:VL4 (antibody, human IgG1, kappa, L234A L235A, V domains shown)
VH: B2 VH
VL: B1 VL with D1E, I2L, L11V, S76N, V108E
notes: Humanized; also called VL4:VH1
B5: h48D2 VH5:VL3 (antibody, human IgG1, kappa, L234A L235A, V domains shown)
VH: B1 VH
VL: DILLTQTPSVVSASVGDRVTITCQASESISTALAWYQQKPGQAPRLLIYKASTLPSGVPSRFRGSGSGTDFTLTITSLQPEDFATYYCQQGFSSGNVHNAFGGGTRLEIKR
notes: Humanized; also called VL3:VH5
B6: h48D2 VH3:VL1 (antibody, human IgG1, kappa, L234A L235A, V domains shown)
VH: B2 VH with E5L, K13L, N83S, R112L, L115T
VL: B1 VL
notes: Humanized; also called VL1:VH3
B7: h48D2 VH5:VL2 (antibody, human IgG1, kappa, L234A L235A, V domains shown)
VH: B1 VH
VL: B1 VL with D1Q, M4L, S9A, S10T, D70E, E81D, F83S, G103Q, V107L, V108E
notes: Humanized; also called VL2:VH5
B8: h48D2 VH3:VL4 (antibody, human IgG1, kappa, L234A L235A, V domains shown)
VH: B2 VH with E5L, K13L, N83S, R112L, L115T
VL: B1 VL with D1E, I2L, L11V, S76N, V108E
notes: Humanized; also called VL4:VH3
B9: h48D2 VH1:VL2 (antibody, human IgG1, kappa, L234A L235A, V domains shown)
VH: B2 VH
VL: B1 VL with D1Q, M4L, S9A, S10T, D70E, E81D, F83S, G103Q, V107L, V108E
notes: Humanized; also called VL2:VH1
B10: h48D2 VH1:VL3 (antibody, human IgG1, kappa, L234A L235A, V domains shown)
VH: B2 VH
VL: B5 VL
notes: Humanized; also called VL3:VH1
B11: h48D2 VH1:VL5 (antibody, human IgG1, kappa, L234A L235A, V domains shown)
VH: B2 VH
VL: APVLTQSPATLEASVGDRVTITCQASESISTALAWYQQKPGQPPKLLIYKASTLPSGVPSRFSGSGSGTEFTLTISDLESDDAATYYCQQGFSSGNVHNAFGGGTEVVVKR
notes: Humanized; also called VL5:VH1
B12: h48D2 VH2:VL5 (antibody, human IgG1, kappa, L234A L235A, V domains shown)
VH: B3 VH
VL: B11 VL
notes: Humanized; also called VL5:VH2
B13: h48D2 VH5:VL5 (antibody, human IgG1, kappa, L234A L235A)
heavy: not shown
light: APVLTQSPATLEASVGDRVTITCQASESISTALAWYQQKPGQPPKLLIYKASTLPSGVPSRFSGSGSGTEFTLTISDLESDDAATYYCQQGFSSGNVHNAFGGGTEVVVKRTVAAPSVFIFPPSDEQLKSGTASVVCLLNNFYPREAKVQWKVDNALQSGNSQESVTEQDSKDSTYSLSSTLTLSKADYEKHKVYACEVTHQGLSSPVTKSFNRGEC
notes: Humanized; also called VL5:VH5

molecular target: T1, recombinant hIL1RAP Domain1+2+3 …; assay: bio-layer interferometry, human IL1RAP
Method: Affinity measurements were done on BLItz™ Label-Free Protein Analysis System from ForteBio, using the Basic Kinetics module in the BLItz Pro 1.3.1.3 software from Molecular Devices. Protein A biosensors were hydrated in blocking buffer (PBS, 0.5% BSA, 0.05% Tween 20, pH 7.4) for minimum 10 min at room temperature before coating. Protein A biosensors were coated with antibodies by dipping the biosensors in 200 μl of antibody solution (10 μg/ml in blocking buffer) for 30 min at room temperature. The sensors were then incubated in 200 μl blocking buffer for at least 10 min before use. […] The baseline was made in blocking buffer with a duration time of 30 sec. Association was made for 120 sec in hIL1RAP followed by 120 sec dissociation in blocking buffer.
The antibodies were characterized for A) binding (ELISA analysis, human and cynomolgus monkey IL1RAP), B) inhibition of cytokine signaling (HEK-Blue™ assay), C) affinity (Bio-layer interferometry), D) size heterogeneity (SE-HPLC) and E) yield (concentration, A280). […] SE-HPLC was performed using standard procedures and PBS as running buffer. Affinity and cytokine inhibition were measured as previously described in Example 10. All 25 humanized clones were analyzed for blocking activity on IL-1α, IL-1β and IL-33 signaling while only the clones that had retained the inhibitory activity similar to chimeric 48D2 were analyzed for IL-36 inhibition.
KD values for affinity towards human IL1RAP are shown in Table 11 for the humanized 48D2 variants. Affinity was measured using bio-layer interferometry. […] See also Table 4 for a direct comparison of chimeric 48D2, humanized 48D2 variant VH5:VL4, and a humanized and de-immunized 48D2 variant VH5.GL:VL4.

Row | Kd [nM] | Binder
1 | 2.75 | B1
2 | 30.3 | B2
3 | 13.2 | B3
4 | 42.9 | B4
5 | 2.33 | B5
6 | 28 | B6
7 | 4.27 | B7
8 | 29.6 | B8
9 | 33.7 | B9
10 | 35 | B10
11 | 31.6 | B11
12 | 12 | B12
13 | 1.68 | B13

molecular target: T2, recombinant mf IL1RAP aa21-367; assay: binding ELISA, coated recombinant mf IL1RAP aa21-367

Row | IC50 [µg/mL] | Binder
14 | 0.0261 | B1
15 | 0.0226 | B2
16 | 0.0279 | B3
17 | 0.02 | B4
18 | 0.0288 | B5
19 | 0.0294 | B6
20 | 0.0218 | B7
21 | 0.0303 | B8
22 | 0.0198 | B9
23 | 0.018 | B10
24 | 0.0242 | B11
25 | 0.0279 | B12
26 | 0.0313 | B13

molecular target: T1, recombinant hIL1RAP Domain1+2+3 …; assay: binding ELISA, coated recombinant hIL1RAP aa21-367

Row | IC50 [µg/mL] | Binder
27 | 0.0248 | B1
28 | 0.0181 | B2
29 | 0.0238 | B3
30 | 0.019 | B4
31 | 0.0249 | B5
32 | 0.0257 | B6
33 | 0.0231 | B7
34 | 0.0263 | B8
35 | 0.0182 | B9
36 | 0.0201 | B10
37 | 0.0234 | B11
38 | 0.0249 | B12
39 | 0.0276 | B13

molecular target: T3, human IL1RAP on the cell surface; assay: cell-based or functional assay

Row | IC50 of IL-1α signaling (HEK-Blue assay) [nM] | IC50 of IL-33 signaling (HEK-Blue assay) [nM] | IC50 of IL-36α signaling (HEK-Blue assay) [nM] | IC50 of IL-36γ signaling (HEK-Blue assay) [nM] | IC50 of IL-1β signaling (HEK-Blue assay) [nM] | IC50 of IL-36β signaling (HEK-Blue assay) [nM] | Binder
40 | 2.14 | 3.14 | 0.286 | 3.1 |  |  | B1
41 | 227 | 254 |  |  | 51.6 |  | B2
42 | ~43800 |  |  |  | 2.75 |  | B3
43 | 347 |  |  |  | 14.6 |  | B4
44 | 4.45 | 2.72 | 0.0779 | 0.167 |  | 17.4 | B5
45 |  | ~87500 |  |  | 9.54 |  | B6
46 | 3.77 | 0.647 |  | 0.253 |  |  | B7
47 |  |  |  |  | 22.3 |  | B8
48 | 242 |  |  |  | 37.6 |  | B9
49 | 231 | 195 |  |  | 17.2 |  | B10
50 | 528 | 74.7 |  |  | 20.2 |  | B11
51 | 401 | 183 |  |  | 5.77 |  | B12
52 | 6.3 | 1.23 |  | 0.192 |  | 11.1 | B13
